How the values were obtained:
[1] = target: T1, alpha-synuclein (natural human wildtype alpha-synuclein) (human, UniProt P37840 1-140); experiment: Biacore (SPR) full kinetic analysis
Method: Biacore full binding kinetic analysis of antibodies were carried out using Biacore. Detailed binding kinetic parameters (association rate, ka, dissociation rate, kd, and affinity constant, KD) were determined for murine 1H7 (FIG. 3A), chimeric 1H7 (FIG. 3B) and humanized 1H7 (Hu1H7VHv3-Hu1H7VLv3, Hu1H7VHv3-Hu1H7VLv1, Hu1H7VHv4-Hu1H7VLv1) antibodies (FIG. 3C).

[2] = target: T1, alpha-synuclein (natural human wildtype …); experiment: BLI, ForteBio Octet QK; apparent KD
Method: (§1) Binding kinetic of humanized 1H7 antibodies were also measured by bio-layer interferometry (BLI) using a ForteBio Octet QK instrument (ForteBio, Menlo Park, Calif.). Detailed binding kinetic parameters (association rate, apparent ka, dissociation rate, apparent kd, and affinity constant, apparent KD) were determined for chimeric 1H7 and various humanized 1H7 antibodies (Tables 6-7, FIGS. 4A-C). Apparent ka, apparent kd and apparent KD are binding kinetic parameters obtained using ForteBio assay formats. These parameters differ from ka, kd and KD measured using Biocore assays due to, e.g., avidity effects associated with ForteBio assay formats.

[3] = target: T1, alpha-synuclein (natural human wildtype …); experiment: BLI, ForteBio Octet QK; apparent kd
Method: as §1

[4] = target: T1, alpha-synuclein (natural human wildtype …); experiment: BLI, ForteBio Octet QK; apparent ka
Method: as §1

| Kd [1] [nM] | koff [1] [s⁻¹] | kon [1] [M⁻¹ s⁻¹] | Kd [2] [nM] | koff [3] [s⁻¹] | kon [4] [M⁻¹ s⁻¹] | Binder |
| --- | --- | --- | --- | --- | --- | --- |
| 9.5 | 0.0096 | 1e+06 |  |  |  | Murine 1H7 (antibody, mouse IgG1, V domains shown, Mouse IgG1; also called m1H7; mouse 1H7) VH: VQLQQSGPELVKPGTSVKISCKASGYSFTSYYIHWVKQSPGQGLEWIGWIYPGSGNTKYSEKFKGKATLTADTSSSTAYMQLSSLTSEDSAVYFCARDGCYGFAYWGQGTLVTVS VL: DIVLTQSPASLAVSLGQRATISCKASQSVDYDGDSYMNWYQQKPGQPPKFLICAASNLESGIPARFSGSGSGTDFTLNIHPVEEEDAATYYCQQSNEDPFTFGSGTKLEIK |
|  |  |  | 0.0072 | 4.2e-06 | 580000 | Humanized 1H7 H2L1 (Hu1H7VHv2-Hu1H7VLv1) (antibody, V domains shown) VH: QVQLVQSGAEVKKPGASVKVSCKASGYSFTSYYIHWVRQAPGQGLEWIGWIYPGSGNTKYSEKFKGRATLTADTSTSTAYMELRSLRSDDTAVYFCARDGCYGFAYWGQGTLVTVSS VL: DIQLTQSPSSLSASVGDRVTITCKASQSVDYDGDSYMNWYQQKPGKAPKFLICAASNLESGVPSRFSGSGSGTDFTLTISSLQPEDAATYYCQQSNEDPFTFGQGTKLEIK |
|  |  |  | 4.4 | 0.0023 | 520000 | Humanized 1H7 H4L4 (Hu1H7VHv4-Hu1H7VLv4) (antibody, V domains shown) VH: QVQLVQSGAEVKKPGASVKVSCKASGYSFTSYYIHWVRQAPGQGLEWIGWIYPGSGNTKYSEKFKGRATLTADTSTSTAYMELRSLRSDDTAVYFCARDGSYGFAYWGQGTLVTVSS VL: DIQLTQSPSSLSASVGDRVTITCKASQSVDYDGDSYMNWYQQKPGKAPKFLIYAASNLESGVPSRFSGSGSGTDFTLTISSLQPEDFATYYCQQSNEDPFTFGQGTKLEIK |
|  |  |  | 3.3 | 0.0058 | 1.8e+06 | Humanized 1H7 H1L4 (Hu1H7VHv1-Hu1H7VLv4) (antibody, V domains shown) VH: QVQLVQSGAELKKPGASVKVSCKASGYSFTSYYIHWVKQAPGQGLEWIGWIYPGSGNTKYSEKFKGRATLTADTSTSTAYMELRSLRSDDTAVYFCARDGCYGFAYWGQGTLVTVSS VL: DIQLTQSPSSLSASVGDRVTITCKASQSVDYDGDSYMNWYQQKPGKAPKFLIYAASNLESGVPSRFSGSGSGTDFTLTISSLQPEDFATYYCQQSNEDPFTFGQGTKLEIK |
|  |  |  | 1.2 | 0.0019 | 1.6e+06 | Humanized 1H7 H5L4 (Hu1H7VHv5-Hu1H7VLv4) (antibody, V domains shown) VH: QVQLVQSGAEVKKPGASVKVSCKASGYTFTSYYIHWVRQAPGQGLEWMGWIYPGSGNTKYSEKFKGRATMTADTSTSTAYMELRSLRSDDTAVYYCARDGSYGFAYWGQGTLVTVSS VL: DIQLTQSPSSLSASVGDRVTITCKASQSVDYDGDSYMNWYQQKPGKAPKFLIYAASNLESGVPSRFSGSGSGTDFTLTISSLQPEDFATYYCQQSNEDPFTFGQGTKLEIK |
|  |  |  | 4.8 | 0.0012 | 250000 | Humanized 1H7 H1L1 (Hu1H7VHv1-Hu1H7VLv1) (antibody, V domains shown) VH: QVQLVQSGAELKKPGASVKVSCKASGYSFTSYYIHWVKQAPGQGLEWIGWIYPGSGNTKYSEKFKGRATLTADTSTSTAYMELRSLRSDDTAVYFCARDGCYGFAYWGQGTLVTVSS VL: DIQLTQSPSSLSASVGDRVTITCKASQSVDYDGDSYMNWYQQKPGKAPKFLICAASNLESGVPSRFSGSGSGTDFTLTISSLQPEDAATYYCQQSNEDPFTFGQGTKLEIK |
|  |  |  | 1.7 | 0.0021 | 1.2e+06 | Humanized 1H7 H4L2 (Hu1H7VHv4-Hu1H7VLv2) (antibody, V domains shown) VH: QVQLVQSGAEVKKPGASVKVSCKASGYSFTSYYIHWVRQAPGQGLEWIGWIYPGSGNTKYSEKFKGRATLTADTSTSTAYMELRSLRSDDTAVYFCARDGSYGFAYWGQGTLVTVSS VL: DIQLTQSPSSLSASVGDRVTITCKASQSVDYDGDSYMNWYQQKPGKAPKFLIYAASNLESGVPSRFSGSGSGTDFTLTISSLQPEDAATYYCQQSNEDPFTFGQGTKLEIK |
|  |  |  | 2.6 | 0.002 | 760000 | Humanized 1H7 H5L3 (Hu1H7VHv5-Hu1H7VLv3) (antibody, V domains shown) VH: QVQLVQSGAEVKKPGASVKVSCKASGYTFTSYYIHWVRQAPGQGLEWMGWIYPGSGNTKYSEKFKGRATMTADTSTSTAYMELRSLRSDDTAVYYCARDGSYGFAYWGQGTLVTVSS VL: DIQLTQSPSSLSASVGDRVTITCKASQSVDYDGDSYMNWYQQKPGKAPKFLICAASNLESGVPSRFSGSGSGTDFTLTISSLQPEDFATYYCQQSNEDPFTFGQGTKLEIK |
| 64 | 0.056 | 880000 |  |  |  | Humanized 1H7 H5L1 (Hu1H7VHv5-Hu1H7VLv1) (antibody, V domains shown) VH: QVQLVQSGAEVKKPGASVKVSCKASGYTFTSYYIHWVRQAPGQGLEWMGWIYPGSGNTKYSEKFKGRATMTADTSTSTAYMELRSLRSDDTAVYYCARDGSYGFAYWGQGTLVTVSS VL: DIQLTQSPSSLSASVGDRVTITCKASQSVDYDGDSYMNWYQQKPGKAPKFLICAASNLESGVPSRFSGSGSGTDFTLTISSLQPEDAATYYCQQSNEDPFTFGQGTKLEIK |
|  |  |  | 2.9 | 0.00064 | 220000 | Humanized 1H7 H1L3 (Hu1H7VHv1-Hu1H7VLv3) (antibody, V domains shown) VH: QVQLVQSGAELKKPGASVKVSCKASGYSFTSYYIHWVKQAPGQGLEWIGWIYPGSGNTKYSEKFKGRATLTADTSTSTAYMELRSLRSDDTAVYFCARDGCYGFAYWGQGTLVTVSS VL: DIQLTQSPSSLSASVGDRVTITCKASQSVDYDGDSYMNWYQQKPGKAPKFLICAASNLESGVPSRFSGSGSGTDFTLTISSLQPEDFATYYCQQSNEDPFTFGQGTKLEIK |
|  |  |  | 2 | 0.0046 | 2.3e+06 | Humanized 1H7 H2L2 (Hu1H7VHv2-Hu1H7VLv2) (antibody, V domains shown) VH: QVQLVQSGAEVKKPGASVKVSCKASGYSFTSYYIHWVRQAPGQGLEWIGWIYPGSGNTKYSEKFKGRATLTADTSTSTAYMELRSLRSDDTAVYFCARDGCYGFAYWGQGTLVTVSS VL: DIQLTQSPSSLSASVGDRVTITCKASQSVDYDGDSYMNWYQQKPGKAPKFLIYAASNLESGVPSRFSGSGSGTDFTLTISSLQPEDAATYYCQQSNEDPFTFGQGTKLEIK |
| 33.9 | 0.033 | 970000 |  |  |  | Humanized 1H7 H4L1 (Hu1H7VHv4-Hu1H7VLv1) (antibody, V domains shown) VH: QVQLVQSGAEVKKPGASVKVSCKASGYSFTSYYIHWVRQAPGQGLEWIGWIYPGSGNTKYSEKFKGRATLTADTSTSTAYMELRSLRSDDTAVYFCARDGSYGFAYWGQGTLVTVSS VL: DIQLTQSPSSLSASVGDRVTITCKASQSVDYDGDSYMNWYQQKPGKAPKFLICAASNLESGVPSRFSGSGSGTDFTLTISSLQPEDAATYYCQQSNEDPFTFGQGTKLEIK |
| 12 | 0.013 | 1.1e+06 |  |  |  | Humanized 1H7 H3L1 (Hu1H7VHv3-Hu1H7VLv1) (antibody, V domains shown) VH: QVQLVQSGAEVKKPGASVKVSCKASGYTFTSYYIHWVRQAPGQGLEWMGWIYPGSGNTKYSEKFKGRATMTADTSTSTAYMELRSLRSDDTAVYYCARDGCYGFAYWGQGTLVTVSS VL: DIQLTQSPSSLSASVGDRVTITCKASQSVDYDGDSYMNWYQQKPGKAPKFLICAASNLESGVPSRFSGSGSGTDFTLTISSLQPEDAATYYCQQSNEDPFTFGQGTKLEIK |
|  |  |  | 4 | 0.0021 | 520000 | Humanized 1H7 H5L2 (Hu1H7VHv5-Hu1H7VLv2) (antibody, V domains shown) VH: QVQLVQSGAEVKKPGASVKVSCKASGYTFTSYYIHWVRQAPGQGLEWMGWIYPGSGNTKYSEKFKGRATMTADTSTSTAYMELRSLRSDDTAVYYCARDGSYGFAYWGQGTLVTVSS VL: DIQLTQSPSSLSASVGDRVTITCKASQSVDYDGDSYMNWYQQKPGKAPKFLIYAASNLESGVPSRFSGSGSGTDFTLTISSLQPEDAATYYCQQSNEDPFTFGQGTKLEIK |
|  |  |  | 5.8 | 0.009 | 1.6e+06 | Humanized 1H7 H1L2 (Hu1H7VHv1-Hu1H7VLv2) (antibody, V domains shown) VH: QVQLVQSGAELKKPGASVKVSCKASGYSFTSYYIHWVKQAPGQGLEWIGWIYPGSGNTKYSEKFKGRATLTADTSTSTAYMELRSLRSDDTAVYFCARDGCYGFAYWGQGTLVTVSS VL: DIQLTQSPSSLSASVGDRVTITCKASQSVDYDGDSYMNWYQQKPGKAPKFLIYAASNLESGVPSRFSGSGSGTDFTLTISSLQPEDAATYYCQQSNEDPFTFGQGTKLEIK |
|  |  |  | 2.7 | 0.002 | 740000 | Humanized 1H7 H4L3 (Hu1H7VHv4-Hu1H7VLv3) (antibody, V domains shown) VH: QVQLVQSGAEVKKPGASVKVSCKASGYSFTSYYIHWVRQAPGQGLEWIGWIYPGSGNTKYSEKFKGRATLTADTSTSTAYMELRSLRSDDTAVYFCARDGSYGFAYWGQGTLVTVSS VL: DIQLTQSPSSLSASVGDRVTITCKASQSVDYDGDSYMNWYQQKPGKAPKFLICAASNLESGVPSRFSGSGSGTDFTLTISSLQPEDFATYYCQQSNEDPFTFGQGTKLEIK |
| 9 | 0.011 | 1.3e+06 |  |  |  | Humanized 1H7 H3L3 (Hu1H7VHv3-Hu1H7VLv3) (antibody, V domains shown) VH: QVQLVQSGAEVKKPGASVKVSCKASGYTFTSYYIHWVRQAPGQGLEWMGWIYPGSGNTKYSEKFKGRATMTADTSTSTAYMELRSLRSDDTAVYYCARDGCYGFAYWGQGTLVTVSS VL: DIQLTQSPSSLSASVGDRVTITCKASQSVDYDGDSYMNWYQQKPGKAPKFLICAASNLESGVPSRFSGSGSGTDFTLTISSLQPEDFATYYCQQSNEDPFTFGQGTKLEIK |
